Changes are numbered by the printed parent chain.

From patent publication US20220155309A1 (NATIONAL UNIVERSITY CORPORATION TOKYO MEDICAL AND DENTAL …, published 2022) come the findings set out here.

Assay [1] concerns the target T1, vimentin (UniProt P08670 2-466, limits assumed).
T1 construct: whole, on cells; Endogenous intracellular intermediate filament; also called vimentin fibers; intracellular vimentin
Description: fluorescence polarization microscopy of cells expressing the fusion protein. From the text:
(§1) An expression vector in which DNA encoding the fusion protein designed was placed under an appropriate promoter was introduced by a lipofection method (Avalanche-Everyday Transfection Reagent), thereby allowing HeLa cells to express the above fusion protein. The cells expressing the fusion protein were observed by fluorescence polarization microscopy.
(§2) The orientation of polarization was different from that in the previous cp-sfGFP. The cp-sfGFP of Example 5 and the cp176-172mVenus used in this example were basically the same type of fluorescent proteins but different in the position of cp.
(In fluorescence polarisation assays a small probe gives low polarisation when free and higher when bound to something large.)

Assay [2] addresses T1, vimentin. Description: fluorescence polarization microscopy of HeLa cells expressing the fusion protein.
From the text: as §1, §2

In assay [3] the target is T2, Affimer that binds to actin with ALFA-tag introduced (SEQ ID No: 41).
T2 construct: Expressed in HeLaM cells; also called fusion protein of Affimer and an ALFA-tag; Affimer with ALFA-tag introduced
T2 chain: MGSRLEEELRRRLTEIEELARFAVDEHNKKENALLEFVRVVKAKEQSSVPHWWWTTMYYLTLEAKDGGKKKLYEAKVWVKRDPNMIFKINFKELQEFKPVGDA
Briefly: fluorescence polarization microscopy of HeLaM cells expressing the ALFA-tagged Affimer, detected with the anti-ALFA-tag Nanobody-cp176-172mVenus fusion. From the text:
Specifically, an ALFA-tag (SEQ ID No: 40) was introduced into an Affimer (SEQ ID No: 2) that binds to F-actin as a model system for verifying the above detection system, to obtain a fusion protein having the amino acid sequence set forth in SEQ ID No: 41. This fusion protein was expressed in HeLaM cells. A fusion protein of an anti-ALFA-tag Nanobody (SEQ ID No: 42) and cp176-172mVenus (SEQ ID No: 43) were brought into contact, and fluorescence polarization was observed. The fusion protein of anti-ALFA-tagged Nanobody and cp176-172mVenus was a fusion protein suitable for observation of fluorescence polarization, in which the Nanobody and the cp176-172mVenus were tightly linked (c.f. Example 5).

T1 sequence (P08670 2-466 limits assumed): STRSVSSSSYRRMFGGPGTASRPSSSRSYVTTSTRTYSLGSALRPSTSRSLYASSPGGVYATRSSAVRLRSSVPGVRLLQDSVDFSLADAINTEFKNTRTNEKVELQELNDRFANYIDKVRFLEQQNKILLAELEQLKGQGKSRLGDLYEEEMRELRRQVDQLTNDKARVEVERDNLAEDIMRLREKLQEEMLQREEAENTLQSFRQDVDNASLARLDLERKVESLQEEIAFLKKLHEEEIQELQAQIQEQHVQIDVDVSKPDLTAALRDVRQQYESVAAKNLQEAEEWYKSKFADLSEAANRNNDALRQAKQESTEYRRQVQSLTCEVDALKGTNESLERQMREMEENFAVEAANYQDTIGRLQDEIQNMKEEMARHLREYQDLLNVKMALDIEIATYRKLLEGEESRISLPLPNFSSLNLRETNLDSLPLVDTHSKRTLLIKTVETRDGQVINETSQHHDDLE

B1: fusion protein of Nanobody that binds to vimentin and cpmTurquoise2 (SEQ ID No: 25) (VHH)
VHH: QVQLVESGGGLVQSGGSLTLTCAASGFTFSAASMRWVRQVPGKGLEWVATIDGTGANSYYSESAKGRFTISRDNARNTLRLQMNNLKPDDTAVYYCANFGRNYWGKGTQVTVVV
For B1, the binding result with vimentin [1] was “binds”.

B2: fusion protein of vimentin-binding Nanobody and mApple (SEQ ID No: 19) (VHH)
VHH: B1 VHH with V113M, V114A
notes: Expressed inside HeLa cells; also called fusion protein of mApple and Nanobody
Take B2: the binding result with vimentin [2] is “binds”.

B3: fusion protein of Nanobody that binds to vimentin and cp176-172mVenus (SEQ ID No: 31) (VHH)
VHH: B1 VHH
notes: Expressed inside HeLa cells
Consider B3, for which the binding result in the assay with vimentin [2] is listed as “binds”.

B4: fusion protein of vimentin-binding Nanobody and cp-sfGFP (SEQ ID No: 17) (VHH)
VHH: B1 VHH
notes: Expressed inside HeLa cells; beta-sheet to beta-sheet linkage; also called fusion protein of cp-sfGFP and Nanobody
As to B4, in the assay with vimentin [2], the binding result is “binds”.

B5: fusion protein of Nanobody that binds to vimentin and cpmVenus (SEQ ID No: 26) (VHH)
VHH: B1 VHH
For B5, in the assay with vimentin [1], the binding result is reported as “binds”.

B6: fusion protein of anti-ALFA-tag Nanobody and cp176-172mVenus (SEQ ID No: 43) (VHH)
VHH: EVQLQESGGGLVQPGGSLRLSCTASGVTISALNAMAMGWYRQAPGERRVMVAAVSERGNAMYRESVQGRFTVTRDFTNKMVSLQMDNLKPEDTAVYYCHVLEDRVDSFHDYWGQGTQVTVVQ
Turning to B6, the binding result in assay [3] is “binds”.
